Reference: patent publication US20230365714A1

Legend:
[1] = biological target: ROR112 shuffle variant (Ig-like domain and CRD of ROR1, kringle domain of ROR2) (human (ROR1/ROR2 chimera)) (UniProt Q01973); experiment: cell imaging (CellInsight) on CHO cells expressing the shuffle construct
[2] = biological target: ROR122 shuffle variant (Ig-like domain of ROR1, CRD and kringle domain of ROR2) (human (ROR1/ROR2 chimera)) (UniProt Q01973); experiment: as above
Sequence of ROR122 shuffle variant (Ig-like domain of ROR1, CRD and kringle domain of ROR2) (human (ROR1/ROR2 chimera)) (Q01973 other isoform, or with tags, fused parts or gaps mutant limits assumed): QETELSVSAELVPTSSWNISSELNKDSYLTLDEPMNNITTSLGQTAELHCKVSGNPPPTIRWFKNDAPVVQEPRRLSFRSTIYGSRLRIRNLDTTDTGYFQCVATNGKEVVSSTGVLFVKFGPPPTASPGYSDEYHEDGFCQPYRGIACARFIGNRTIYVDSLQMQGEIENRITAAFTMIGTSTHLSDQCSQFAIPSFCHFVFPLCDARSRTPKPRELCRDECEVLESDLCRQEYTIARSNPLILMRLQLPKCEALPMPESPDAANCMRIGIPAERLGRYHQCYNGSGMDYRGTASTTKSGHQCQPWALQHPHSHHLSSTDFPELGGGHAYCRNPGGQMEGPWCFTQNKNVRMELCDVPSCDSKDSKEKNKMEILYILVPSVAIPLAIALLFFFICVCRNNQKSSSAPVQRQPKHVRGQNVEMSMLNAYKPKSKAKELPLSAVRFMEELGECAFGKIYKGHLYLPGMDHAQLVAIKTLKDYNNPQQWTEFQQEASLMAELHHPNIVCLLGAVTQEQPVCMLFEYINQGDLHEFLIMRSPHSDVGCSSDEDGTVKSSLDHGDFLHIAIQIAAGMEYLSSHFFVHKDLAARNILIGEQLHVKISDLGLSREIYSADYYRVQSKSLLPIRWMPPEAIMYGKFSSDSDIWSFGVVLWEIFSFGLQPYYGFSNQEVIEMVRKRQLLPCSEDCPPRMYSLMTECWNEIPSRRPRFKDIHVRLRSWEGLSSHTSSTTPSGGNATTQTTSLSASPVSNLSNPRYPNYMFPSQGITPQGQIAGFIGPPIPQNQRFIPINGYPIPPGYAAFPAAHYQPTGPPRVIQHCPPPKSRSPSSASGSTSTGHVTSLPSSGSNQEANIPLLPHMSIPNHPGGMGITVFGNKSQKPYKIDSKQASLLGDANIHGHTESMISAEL

Sequence of ROR112 shuffle variant (Ig-like domain and CRD of ROR1, kringle domain of ROR2) (human (ROR1/ROR2 chimera)) (Q01973 other isoform, or with tags, fused parts or gaps mutant limits assumed): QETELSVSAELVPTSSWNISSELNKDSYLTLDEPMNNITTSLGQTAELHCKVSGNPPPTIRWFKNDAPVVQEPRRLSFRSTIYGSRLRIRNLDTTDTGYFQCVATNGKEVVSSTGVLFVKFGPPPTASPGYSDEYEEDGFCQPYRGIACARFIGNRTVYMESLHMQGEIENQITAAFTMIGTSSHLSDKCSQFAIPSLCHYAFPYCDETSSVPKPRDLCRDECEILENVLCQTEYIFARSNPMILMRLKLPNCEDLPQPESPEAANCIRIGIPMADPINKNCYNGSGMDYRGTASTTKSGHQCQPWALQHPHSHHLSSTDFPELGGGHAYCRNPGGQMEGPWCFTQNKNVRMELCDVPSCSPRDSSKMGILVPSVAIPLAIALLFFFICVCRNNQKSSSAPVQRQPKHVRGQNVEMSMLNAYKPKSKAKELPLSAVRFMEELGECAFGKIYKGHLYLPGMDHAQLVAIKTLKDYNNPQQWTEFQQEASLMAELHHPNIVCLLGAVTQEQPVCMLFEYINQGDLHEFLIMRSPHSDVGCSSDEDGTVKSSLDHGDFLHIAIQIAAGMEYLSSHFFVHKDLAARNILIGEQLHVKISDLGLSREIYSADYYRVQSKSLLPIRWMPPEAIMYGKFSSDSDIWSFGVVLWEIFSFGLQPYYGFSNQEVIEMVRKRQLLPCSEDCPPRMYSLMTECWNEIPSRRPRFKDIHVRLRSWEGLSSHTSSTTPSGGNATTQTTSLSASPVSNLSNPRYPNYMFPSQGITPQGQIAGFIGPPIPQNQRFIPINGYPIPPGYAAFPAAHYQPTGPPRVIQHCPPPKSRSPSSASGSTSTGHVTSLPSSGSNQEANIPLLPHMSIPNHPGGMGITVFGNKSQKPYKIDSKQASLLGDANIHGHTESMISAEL

B1: chIgG1-ROR2-A (antibody, V domains shown)
VH: QSVEESGGRLVTPGTPLTLTCTVSGFSLSSYSMSWVRQAPGKGLEWIGVIYVNSKTWYANWAKGRFTISKTSTTVDLKITSPTTEDTATYFCARGDAGYTTNSWLWGPGTLVTVSS
VL: AFELTQTPASVSEPVGGTVTIKCQASESIDNYCSWYQQKPGQPPKLLIYQAFKLASGVPSRFRGSGSGTQFTLTISDLESDDAATYYCQSYSGISTTAFGGGTEVVVK
RFU (total spot intensity) [1]: > 12000 RFU | RFU (total spot intensity) [2]: > 12000 RFU
